# Reference: publication PMC5118412 (Cell Discovery, 2016)
# Assays:
# GLP-1R = conditions: covalently attaches to C347; ref [34], [35]; cited from earlier work
# Text: GPCRs have been viewed as ‘allosteric machines’ [33] because many allosteric modulators have been identified binding outside the orthosteric pocket of the physiological activators to modulate endogenous agonist binding and function. […] Although mutating C347 to positively charged lysine or arginine ...
# [1] = target: human GLP-1R stably expressed in AD293 cells (GLP-1R/NlucP-293 cells) (human) (UniProt P43220)
# [2] = target: GLP-1-5xGSA-GLP-1R (24–429)–TEV site–tTA (UniProt P43220)
# [3] = target: EX4-5xGSA-GLP-1R (24–429)–TEV site–tTA (Gila monster | human) (UniProt P43220)
# [4] = target: GLP-1 Δ5-5xGSA-GLP-1R (24–429)–TEV site–tTA (UniProt P43220)
# [5] = target: GLP-1 Δ4-5xGSA-GLP-1R (24–429)–TEV site–tTA (UniProt P43220)
molecule,measurement,setting,value
"CC[S+]([O-])c1nc(-c2cccc(OCc3ccccc3)c2)cc(C(F)(F)F)n1 (stereo not drawn) [BETP, 4-(3-(Benzyloxy)phenyl)-2-ethylsulfinyl-6 (trifluoromethyl)pyrimidine]",allosteric modulation of GLP-1R,GLP-1R,positive allosteric modulator
GLP-1(9–37) (peptide),cAMP signal (CRE-NanoLuc luciferase reporter) in GLP-1R/NlucP-293 cells; potency (EC50) of full-length GLP-1 over that of the truncated GLP-1,[1],1000 fold
ß-arrestin 1 fused with TEV protease (from UniProt P49407 1-418) (natural protein),Tango assay (tTA/TRE-luc reporter) in HTL cells; arrestin recruiting signal against the unfused receptor with 1 μM hormone,[2],150
same,Tango assay (tTA/TRE-luc reporter) in HTL cells; arrestin recruiting signal against the unfused receptor with 1 μM hormone,[3],150
same,"Tango assay (tTA/TRE-luc reporter) in HTL cells, relative to GLP-1-5GSA-FL (Δ0) (% of GLP-1-5GSA-FL (Δ0))",[4],50
same,"Tango assay (tTA/TRE-luc reporter) in HTL cells, relative to GLP-1-5GSA-FL (Δ0) (% of GLP-1-5GSA-FL (Δ0))",[5],50
